Experimental data published in article PMC4772808, “Insights from the reconstitution of the divergent outer kinetochore of Drosophila melanogaster” (Open Biology, 2016).

Experiments:
Assay in all cases: AUC; sedimentation velocity, 42 000 rpm, 20°C, 20 mM Tris pH 8, 0.15 M NaCl, 1 mM TCEP, absorbance at 280 nm, c(S) analysis with SEDFIT
Conditions in all cases: both partners purified
[1] = molecular target: T1, DmMis12a complex (Mis12:Nnf1a:Kmn1) (Drosophila melanogaster, UniProt Q9VS01 1-181; Q7JZC9 1-194; Q9VYX4 1-183)
T1 construct: Mis12 subunit of the Drosophila melanogaster Mis12 complex; Nnf1a (Nnf1R-1), Drosophila melanogaster; Kmn1, the Nsl1 orthologue of Drosophila melanogaster; source: E. coli BL21(DE3) Rosetta, co-expressed (pST44), purified (His-Trap, ResourceQ, Superdex 200); copies: 1 + 1 + 1
T1 sequence (looked up) 1: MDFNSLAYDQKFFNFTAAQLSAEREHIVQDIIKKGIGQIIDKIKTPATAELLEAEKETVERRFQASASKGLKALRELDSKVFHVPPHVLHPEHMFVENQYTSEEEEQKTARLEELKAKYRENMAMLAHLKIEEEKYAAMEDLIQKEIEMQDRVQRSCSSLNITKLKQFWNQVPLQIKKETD
T1 sequence (looked up) 2: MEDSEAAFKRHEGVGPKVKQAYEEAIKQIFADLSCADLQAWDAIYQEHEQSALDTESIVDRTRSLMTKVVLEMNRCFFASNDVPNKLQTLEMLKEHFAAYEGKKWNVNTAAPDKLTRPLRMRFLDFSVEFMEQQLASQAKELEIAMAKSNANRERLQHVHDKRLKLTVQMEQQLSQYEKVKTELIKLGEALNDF
T1 sequence (looked up) 3: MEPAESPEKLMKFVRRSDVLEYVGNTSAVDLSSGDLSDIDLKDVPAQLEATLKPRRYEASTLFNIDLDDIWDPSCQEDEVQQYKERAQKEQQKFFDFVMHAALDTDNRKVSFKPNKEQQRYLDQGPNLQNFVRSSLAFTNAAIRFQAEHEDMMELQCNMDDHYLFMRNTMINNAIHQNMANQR

[2] = molecular target: T2, Mis12a:Spc105R^1707–1960 complex (Drosophila melanogaster, UniProt Q9VS01 1-181; Q7JZC9 1-194; Q9VYX4 1-183; M9PIC9 1707-1960)
T2 construct: Mis12 subunit of the Drosophila melanogaster Mis12 complex; Nnf1a (Nnf1R-1), Drosophila melanogaster; Kmn1, the Nsl1 orthologue of Drosophila melanogaster; source: E. coli BL21(DE3) Rosetta, co-expressed (pST44), purified (His-Trap, ResourceQ, Superdex 200); copies: 1 + 1 + 1 + 1
T2 sequence (looked up) 1: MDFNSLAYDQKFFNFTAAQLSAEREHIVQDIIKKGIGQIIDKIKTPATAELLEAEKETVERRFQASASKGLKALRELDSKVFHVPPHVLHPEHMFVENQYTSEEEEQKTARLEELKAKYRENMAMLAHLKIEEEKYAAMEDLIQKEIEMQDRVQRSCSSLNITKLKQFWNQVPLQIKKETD
T2 sequence (looked up) 2: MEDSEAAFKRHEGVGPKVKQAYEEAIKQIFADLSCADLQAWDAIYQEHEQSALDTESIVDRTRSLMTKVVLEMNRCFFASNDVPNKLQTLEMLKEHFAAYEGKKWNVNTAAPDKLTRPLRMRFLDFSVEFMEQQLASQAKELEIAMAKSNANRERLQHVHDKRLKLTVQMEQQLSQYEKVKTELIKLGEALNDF
T2 sequence (looked up) 3: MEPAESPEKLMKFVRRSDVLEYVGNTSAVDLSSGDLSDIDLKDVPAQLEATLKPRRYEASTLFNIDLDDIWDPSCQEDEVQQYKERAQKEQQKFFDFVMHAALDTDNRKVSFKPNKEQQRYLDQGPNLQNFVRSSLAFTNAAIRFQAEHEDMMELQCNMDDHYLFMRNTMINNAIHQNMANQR
T2 sequence (looked up) 4: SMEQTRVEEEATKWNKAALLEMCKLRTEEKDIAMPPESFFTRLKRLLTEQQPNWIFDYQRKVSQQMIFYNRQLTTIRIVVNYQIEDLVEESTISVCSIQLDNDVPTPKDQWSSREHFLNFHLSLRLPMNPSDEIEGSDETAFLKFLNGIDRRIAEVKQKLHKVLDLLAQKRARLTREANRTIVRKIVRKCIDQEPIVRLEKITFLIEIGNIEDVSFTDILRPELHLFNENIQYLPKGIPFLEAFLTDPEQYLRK

[3] = molecular target: T3, DmMis12b complex (Mis12:Nnf1b:Kmn1) (Drosophila melanogaster, UniProt Q9VS01 1-181; Q8IPW3 1-204; Q9VYX4 1-183)
T3 construct: Mis12 subunit of the Drosophila melanogaster Mis12 complex; Nnf1b (Nnf1R-2), Drosophila melanogaster; Kmn1, the Nsl1 orthologue of Drosophila melanogaster; source: E. coli BL21(DE3) Rosetta, co-expressed (pST44), purified (His-Trap, ResourceQ, Superdex 200); copies: 1 + 1 + 1
T3 sequence (looked up) 1: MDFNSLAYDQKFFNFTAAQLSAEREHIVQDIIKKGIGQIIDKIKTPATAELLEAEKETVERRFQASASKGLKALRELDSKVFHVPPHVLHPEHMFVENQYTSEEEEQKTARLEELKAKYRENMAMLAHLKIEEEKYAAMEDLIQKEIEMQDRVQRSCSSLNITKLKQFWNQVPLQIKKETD
T3 sequence (looked up) 2: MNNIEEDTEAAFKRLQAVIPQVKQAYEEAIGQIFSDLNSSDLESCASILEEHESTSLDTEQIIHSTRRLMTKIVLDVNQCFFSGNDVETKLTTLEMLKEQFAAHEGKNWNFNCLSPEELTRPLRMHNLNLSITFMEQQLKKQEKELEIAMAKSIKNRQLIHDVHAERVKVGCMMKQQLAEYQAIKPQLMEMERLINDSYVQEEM
T3 sequence (looked up) 3: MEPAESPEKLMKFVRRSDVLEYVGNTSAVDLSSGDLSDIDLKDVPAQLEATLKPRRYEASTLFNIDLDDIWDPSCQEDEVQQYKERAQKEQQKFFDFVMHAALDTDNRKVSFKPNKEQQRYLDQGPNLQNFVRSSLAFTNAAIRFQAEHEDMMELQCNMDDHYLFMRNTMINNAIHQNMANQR

B1: DmCENP-C^1–105 (domain or fragment, Drosophila melanogaster, UniProt Q9VHP9 1-105, looked up)
chain: MSKPQNNDTLELDDILSQPVKDKERFAAFMMRKLAENKPAQNDNLFGNFKLDFDLDFEVPLIKKSQAKPKSKLPEVQPLGELVSKNSAATEKVNEPPVDQAPNEN
notes: source: E. coli BL21(DE3) Rosetta, purified (His-Trap, ResourceQ, Superdex 200)
stoichiometry N [1]: 1 | stoichiometry N [2]: 1

B2: Spc105R^1707–1960 (domain or fragment, Drosophila melanogaster, UniProt M9PIC9 1707-1960, looked up)
chain: SMEQTRVEEEATKWNKAALLEMCKLRTEEKDIAMPPESFFTRLKRLLTEQQPNWIFDYQRKVSQQMIFYNRQLTTIRIVVNYQIEDLVEESTISVCSIQLDNDVPTPKDQWSSREHFLNFHLSLRLPMNPSDEIEGSDETAFLKFLNGIDRRIAEVKQKLHKVLDLLAQKRARLTREANRTIVRKIVRKCIDQEPIVRLEKITFLIEIGNIEDVSFTDILRPELHLFNENIQYLPKGIPFLEAFLTDPEQYLRK
notes: Soluble only when co-expressed with the Mis12a or Mis12b complex
stoichiometry N [1]: 1 | stoichiometry N [3]: 1
